1 substance from paper PMC2315677 can be followed below.

Where two headings read alike, the source gives them in different places.

In assay [1] the target is calreticulin (hamster (endogenous in CHO)) (UniProt Q8K3H7). Nature of the assay: co-IP.
Assay [2] has the same target. The experiment in a line: co-IP. This is another data set of the same source.

Chain of UniProt Q8K3H7 (Q8K3H7 18-417): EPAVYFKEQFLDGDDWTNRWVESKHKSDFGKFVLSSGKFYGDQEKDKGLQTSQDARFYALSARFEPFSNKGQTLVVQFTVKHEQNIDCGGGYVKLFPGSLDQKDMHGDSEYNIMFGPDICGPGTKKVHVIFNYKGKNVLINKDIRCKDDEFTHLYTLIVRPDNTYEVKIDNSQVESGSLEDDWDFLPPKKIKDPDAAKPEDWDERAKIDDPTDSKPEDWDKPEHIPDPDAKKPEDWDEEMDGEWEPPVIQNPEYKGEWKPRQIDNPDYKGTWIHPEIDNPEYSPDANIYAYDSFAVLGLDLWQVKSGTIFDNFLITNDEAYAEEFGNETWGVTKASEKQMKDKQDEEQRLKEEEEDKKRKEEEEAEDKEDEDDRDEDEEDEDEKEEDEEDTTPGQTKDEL

Consider “influenza hemagglutinin (HA) wild type, transiently expressed in MI8-5 CHO cells (from UniProt P03437 17-566) (natural protein)”, for which the percent bound in assay [1] stood at 70%; in assay [2], 16%.
